Reference: the supplement of paper PMC10065799, “High-throughput profiling of sequence recognition by tyrosine kinases and SH2 domains using bacterial peptide display” (eLife, 2023)

Assays:
AncSZ = test: phosphorylation enrichment, bacterial display (enrichment ratio); higher = better substrate or ligand; peptides without Tyr show the background
EPHB2 = EPHB2 (UniProt P29323); test: as above
FGFR1 = FGFR1 (UniProt P11362); test: as above
c-Src = test: as above
FGFR3 = FGFR3 (UniProt P22607); test: as above
FGFR3, sequence (P22607 whole entry, looked up): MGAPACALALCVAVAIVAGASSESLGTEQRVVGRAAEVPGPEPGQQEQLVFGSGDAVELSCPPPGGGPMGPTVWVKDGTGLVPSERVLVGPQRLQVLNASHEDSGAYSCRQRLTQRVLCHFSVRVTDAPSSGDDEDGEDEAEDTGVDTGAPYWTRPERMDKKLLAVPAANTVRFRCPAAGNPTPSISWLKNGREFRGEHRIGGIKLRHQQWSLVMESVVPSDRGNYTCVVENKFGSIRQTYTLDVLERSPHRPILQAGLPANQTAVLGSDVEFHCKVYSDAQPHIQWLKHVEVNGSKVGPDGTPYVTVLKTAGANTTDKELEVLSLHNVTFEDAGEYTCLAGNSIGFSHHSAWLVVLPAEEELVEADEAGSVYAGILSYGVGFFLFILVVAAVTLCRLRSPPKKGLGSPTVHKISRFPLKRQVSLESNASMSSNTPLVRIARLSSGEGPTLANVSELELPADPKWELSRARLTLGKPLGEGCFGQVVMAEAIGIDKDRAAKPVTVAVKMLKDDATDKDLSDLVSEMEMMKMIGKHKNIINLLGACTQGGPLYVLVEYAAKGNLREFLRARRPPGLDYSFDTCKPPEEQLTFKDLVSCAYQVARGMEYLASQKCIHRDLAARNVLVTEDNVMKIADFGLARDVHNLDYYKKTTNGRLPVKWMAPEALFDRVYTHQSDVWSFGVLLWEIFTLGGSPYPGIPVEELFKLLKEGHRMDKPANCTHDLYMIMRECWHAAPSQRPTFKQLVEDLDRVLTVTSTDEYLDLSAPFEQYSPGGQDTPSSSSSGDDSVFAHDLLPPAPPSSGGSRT

c-Abl (mouse) = test: as above
MERTK = MERTK (UniProt Q12866); test: as above
MERTK, sequence (Q12866 whole entry, looked up): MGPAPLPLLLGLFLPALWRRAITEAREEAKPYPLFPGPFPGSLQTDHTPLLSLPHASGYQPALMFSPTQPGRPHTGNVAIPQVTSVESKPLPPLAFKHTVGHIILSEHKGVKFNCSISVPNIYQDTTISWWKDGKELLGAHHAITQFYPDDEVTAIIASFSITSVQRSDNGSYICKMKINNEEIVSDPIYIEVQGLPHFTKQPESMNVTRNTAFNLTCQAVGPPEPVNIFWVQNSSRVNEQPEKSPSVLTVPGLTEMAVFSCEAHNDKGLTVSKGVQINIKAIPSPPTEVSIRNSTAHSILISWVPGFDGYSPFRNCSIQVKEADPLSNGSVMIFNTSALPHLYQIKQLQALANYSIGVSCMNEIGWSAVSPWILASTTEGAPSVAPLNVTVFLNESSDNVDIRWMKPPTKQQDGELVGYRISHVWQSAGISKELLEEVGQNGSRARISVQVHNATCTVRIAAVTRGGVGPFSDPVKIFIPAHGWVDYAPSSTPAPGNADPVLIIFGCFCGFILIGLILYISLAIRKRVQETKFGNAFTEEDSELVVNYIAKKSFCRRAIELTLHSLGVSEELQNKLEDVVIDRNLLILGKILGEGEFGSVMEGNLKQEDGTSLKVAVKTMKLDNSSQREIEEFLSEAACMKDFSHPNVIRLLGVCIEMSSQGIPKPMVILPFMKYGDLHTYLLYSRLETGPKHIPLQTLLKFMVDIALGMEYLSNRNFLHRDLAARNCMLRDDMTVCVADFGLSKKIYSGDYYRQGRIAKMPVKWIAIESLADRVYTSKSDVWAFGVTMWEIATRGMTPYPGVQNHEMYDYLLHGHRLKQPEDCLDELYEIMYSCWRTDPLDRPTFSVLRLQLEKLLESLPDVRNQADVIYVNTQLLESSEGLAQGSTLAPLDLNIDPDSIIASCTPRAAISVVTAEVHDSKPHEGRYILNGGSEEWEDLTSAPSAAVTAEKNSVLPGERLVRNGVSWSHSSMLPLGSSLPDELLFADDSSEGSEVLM

Fer (mouse) = test: as above
EPHB1 = EPHB1 (UniProt P54762); test: as above
Jak2 = Jak2 (UniProt O60674); test: as above
Hck = Hck (UniProt P08631); test: as above
Hck, sequence (P08631 whole entry, looked up): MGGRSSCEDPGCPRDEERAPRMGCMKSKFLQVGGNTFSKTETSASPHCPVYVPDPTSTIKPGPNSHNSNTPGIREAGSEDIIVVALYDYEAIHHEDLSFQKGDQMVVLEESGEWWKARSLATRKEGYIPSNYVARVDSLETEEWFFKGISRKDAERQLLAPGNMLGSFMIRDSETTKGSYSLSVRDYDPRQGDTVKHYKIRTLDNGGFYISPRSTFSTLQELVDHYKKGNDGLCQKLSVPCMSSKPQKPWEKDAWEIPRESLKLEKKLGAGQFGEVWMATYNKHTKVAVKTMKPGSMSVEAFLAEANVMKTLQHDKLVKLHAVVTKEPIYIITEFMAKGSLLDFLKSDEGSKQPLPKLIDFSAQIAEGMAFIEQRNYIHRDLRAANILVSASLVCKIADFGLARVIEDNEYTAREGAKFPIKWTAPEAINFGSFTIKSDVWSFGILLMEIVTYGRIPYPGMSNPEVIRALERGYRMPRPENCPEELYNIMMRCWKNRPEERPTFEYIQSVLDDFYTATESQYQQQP

Fyn = Fyn (UniProt P06241); test: as above
Fyn, sequence (P06241 whole entry, looked up): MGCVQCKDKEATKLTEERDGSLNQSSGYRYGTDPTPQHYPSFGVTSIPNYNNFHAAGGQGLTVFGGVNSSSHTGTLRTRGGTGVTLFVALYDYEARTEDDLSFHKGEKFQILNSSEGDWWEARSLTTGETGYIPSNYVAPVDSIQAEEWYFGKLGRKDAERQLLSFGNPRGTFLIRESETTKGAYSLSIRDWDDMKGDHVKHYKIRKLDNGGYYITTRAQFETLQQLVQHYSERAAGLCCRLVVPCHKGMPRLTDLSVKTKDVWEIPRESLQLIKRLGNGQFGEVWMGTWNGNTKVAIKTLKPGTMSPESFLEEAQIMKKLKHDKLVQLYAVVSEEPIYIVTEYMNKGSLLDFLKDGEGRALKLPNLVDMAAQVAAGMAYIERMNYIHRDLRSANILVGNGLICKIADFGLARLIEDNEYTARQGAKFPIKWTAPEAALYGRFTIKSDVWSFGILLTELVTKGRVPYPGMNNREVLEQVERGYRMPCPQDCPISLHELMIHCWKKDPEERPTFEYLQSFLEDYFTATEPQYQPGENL

Fes = Fes (UniProt P07332); test: as above
Fes, sequence (P07332 whole entry, looked up): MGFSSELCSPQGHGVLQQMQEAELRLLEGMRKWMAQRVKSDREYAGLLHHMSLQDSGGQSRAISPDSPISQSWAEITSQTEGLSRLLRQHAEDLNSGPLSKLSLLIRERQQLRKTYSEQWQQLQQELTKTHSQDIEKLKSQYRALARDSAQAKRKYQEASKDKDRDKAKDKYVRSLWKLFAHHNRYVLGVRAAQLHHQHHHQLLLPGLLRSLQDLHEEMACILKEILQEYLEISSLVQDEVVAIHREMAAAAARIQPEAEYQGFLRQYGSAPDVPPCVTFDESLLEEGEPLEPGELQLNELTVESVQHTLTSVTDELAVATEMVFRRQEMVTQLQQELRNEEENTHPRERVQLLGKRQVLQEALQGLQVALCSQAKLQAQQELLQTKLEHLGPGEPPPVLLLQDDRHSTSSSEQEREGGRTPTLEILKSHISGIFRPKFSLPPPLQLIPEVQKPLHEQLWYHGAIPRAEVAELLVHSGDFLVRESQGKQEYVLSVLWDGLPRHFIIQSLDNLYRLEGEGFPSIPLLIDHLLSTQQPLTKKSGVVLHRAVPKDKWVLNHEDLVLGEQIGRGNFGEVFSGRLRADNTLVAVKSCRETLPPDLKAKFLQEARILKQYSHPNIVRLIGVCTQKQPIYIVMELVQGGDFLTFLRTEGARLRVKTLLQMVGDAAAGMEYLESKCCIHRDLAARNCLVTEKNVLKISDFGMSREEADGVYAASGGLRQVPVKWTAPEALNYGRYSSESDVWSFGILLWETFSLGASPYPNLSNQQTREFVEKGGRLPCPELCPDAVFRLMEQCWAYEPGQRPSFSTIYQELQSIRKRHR

SHP2-C SH2 = test: SH2 binding enrichment of the phosphorylated peptide, bacterial display (enrichment ratio); higher = better substrate or ligand; peptides without Tyr show the background
c-Src SH2 = test: as above
Grb2 SH2 = Grb2 SH2 (UniProt P62993); test: as above
Grb2 SH2, sequence (P62993 whole entry, looked up, the tested form may be a part): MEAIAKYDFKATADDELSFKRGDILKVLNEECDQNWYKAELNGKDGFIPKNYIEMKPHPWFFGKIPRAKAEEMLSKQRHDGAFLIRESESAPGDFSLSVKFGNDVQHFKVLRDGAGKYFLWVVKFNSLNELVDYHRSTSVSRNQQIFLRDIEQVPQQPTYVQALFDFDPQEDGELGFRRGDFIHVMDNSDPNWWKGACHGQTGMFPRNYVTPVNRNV
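Throughout, for SH2 binding enrichment of the phosphorylated peptide, bacterial display: peptide library displayed on the E. coli surface as eCPX fusions, selected cells deep-sequenced, score is each peptide's frequency after selection divided by its frequency in the input.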
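Throughout, for phosphorylation enrichment, bacterial display: 11-residue human phosphosite peptides and single-mutation variants displayed on the E. coli surface, counted by deep sequencing, each peptide's frequency after selection divided by its frequency in the unselected input library; frequency after pTyr selection over input frequency; kinase dosed for 20-30% of maximal phosphorylation in three min.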

FGFR1, sequence (P11362 whole entry, looked up): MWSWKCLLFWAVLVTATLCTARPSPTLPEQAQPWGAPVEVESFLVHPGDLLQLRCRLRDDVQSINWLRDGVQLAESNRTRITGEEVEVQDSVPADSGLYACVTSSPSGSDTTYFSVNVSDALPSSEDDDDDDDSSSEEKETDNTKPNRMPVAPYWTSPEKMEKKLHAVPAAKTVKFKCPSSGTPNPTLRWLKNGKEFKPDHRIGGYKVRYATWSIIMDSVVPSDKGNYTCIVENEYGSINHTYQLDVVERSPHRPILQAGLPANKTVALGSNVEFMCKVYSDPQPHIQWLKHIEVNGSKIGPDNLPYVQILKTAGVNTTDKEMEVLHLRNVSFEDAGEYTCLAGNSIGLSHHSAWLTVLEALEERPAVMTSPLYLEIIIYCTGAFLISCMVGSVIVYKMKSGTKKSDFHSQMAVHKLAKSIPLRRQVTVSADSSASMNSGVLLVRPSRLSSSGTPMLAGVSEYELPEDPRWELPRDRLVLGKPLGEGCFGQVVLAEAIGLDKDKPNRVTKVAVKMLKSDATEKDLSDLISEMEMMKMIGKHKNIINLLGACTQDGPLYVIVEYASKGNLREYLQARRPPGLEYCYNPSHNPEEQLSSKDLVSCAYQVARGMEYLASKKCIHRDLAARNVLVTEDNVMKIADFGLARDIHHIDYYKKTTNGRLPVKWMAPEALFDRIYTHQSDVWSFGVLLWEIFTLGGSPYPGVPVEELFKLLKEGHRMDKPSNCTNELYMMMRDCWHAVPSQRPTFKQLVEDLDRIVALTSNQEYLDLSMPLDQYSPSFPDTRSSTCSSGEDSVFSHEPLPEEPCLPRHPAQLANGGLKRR

| Sequence | phosphorylation enrichment (AncSZ) | phosphorylation enrichment (EPHB2) | phosphorylation enrichment (FGFR1) | phosphorylation enrichment (c-Src) | phosphorylation enrichment (FGFR3) | phosphorylation enrichment (c-Abl (mouse)) | phosphorylation enrichment (MERTK) | phosphorylation enrichment (Fer (mouse)) | phosphorylation enrichment (EPHB1) | phosphorylation enrichment (Jak2) | phosphorylation enrichment (Hck) | phosphorylation enrichment (Fyn) | phosphorylation enrichment (Fes) | SH2 binding enrichment (SHP2-C SH2) | SH2 binding enrichment (c-Src SH2) | SH2 binding enrichment (Grb2 SH2) |
| --- | --- | --- | --- | --- | --- | --- | --- | --- | --- | --- | --- | --- | --- | --- | --- | --- |
| TQPSPYAVYLF [RPGRIP1_Y823_R827L] | 1.06 | 5.25 | 1.34 | 5.65 | 1.1 | 9.15 | 6.5 | 7.18 | 3.03 | 1.01 | 3.73 | 7.04 | 1.68 | 1.17 | 1.16 | 1.16 |
| HLITAYRAHGF [PDHA1_Y118] | 0.648 | 0.389 | 0.701 | 0.344 | 0.609 | 0.309 | 0.369 | 0.489 | 0.572 | 0.408 | 0.536 | 0.551 | 0.74 | 0.642 | 0.422 | 0.981 |
| SIKDKYVTALC [KCNH2_Y611_Y616C] | 0.64 | 0.371 | 0.376 | 0.386 | 0.81 | 0.51 | 0.346 | 0.467 | 0.387 | 0.653 | 0.362 | 0.393 | 0.695 | 0.801 | 0.555 | 0.918 |
| RLLVVYPWTER [HBB_Y36_Q40E] | 1.16 | 0.572 | 0.513 | 0.52 | 0.58 | 0.612 | 0.324 | 0.37 | 0.345 | 1.03 | 0.618 | 0.472 | 1.21 | 2.29 | 1.55 | 2.1 |
| YRIGPYQPNVP [MATR3_Y784] | 0.685 | 0.504 | 0.769 | 0.402 | 0.712 | 0.501 | 0.358 | 0.5 | 0.565 | 0.44 | 0.486 | 0.505 | 0.736 | 0.883 | 0.77 | 0.765 |
| LECEWYKNGVK [TTN_Y2112_P2107L] | 2.15 | 0.923 | 0.744 | 0.576 | 1.01 | 1.16 | 0.921 | 0.771 | 1.36 | 1.39 | 0.931 | 0.619 | 2.16 | 0.48 | 0.322 | 0.613 |
| HIILLYIFLKN [STXBP1_Y411_R406H] | 1.27 | 0.567 | 0.755 | 0.568 | 1.08 | 1.2 | 0.657 | 0.495 | 0.906 | 1.16 | 0.501 | 0.447 | 1.6 | 1.72 | 1.51 | 1.86 |
| SGEKPYKCSEC [ZNF543_Y283] | 0.664 | 0.502 | 0.535 | 0.544 | 0.551 | 0.654 | 0.58 | 0.456 | 0.5 | 0.765 | 0.531 | 0.533 | 0.829 | 0.65 | 0.488 | 1.02 |
| DGKFSYLKVGH [GRM3_Y480_G475D_YF] | 0.678 | 0.388 | 0.467 | 0.411 | 0.478 | 0.575 | 0.505 | 0.338 | 0.444 | 0.599 | 0.337 | 0.33 | 1.16 | 0.671 | 0.421 | 0.838 |
| REVPVYISEDS [SYNM_Y460_G462S] | 2.34 | 1.07 | 1.16 | 1.56 | 1.57 | 2.66 | 1.53 | 1.2 | 1.3 | 3.51 | 1.09 | 0.89 | 2.71 | 0.632 | 0.551 | 1.07 |
| WGLCSYYETSK [MAGED2_Y448_R446C] | 1.38 | 0.73 | 0.76 | 0.712 | 1.02 | 0.818 | 0.56 | 0.572 | 0.865 | 1.35 | 0.58 | 0.488 | 1.31 | 0.526 | 0.586 | 0.765 |
| AKKVFYVIETR [SHH_Y253] | 1.12 | 0.582 | 0.542 | 0.412 | 0.765 | 0.627 | 0.361 | 0.401 | 0.569 | 1.01 | 0.422 | 0.465 | 1.26 | 1.03 | 0.775 | 1.2 |
| AALKLYHVSDS [VIL1_Y256] | 0.815 | 0.558 | 0.511 | 0.417 | 0.672 | 0.537 | 0.847 | 0.427 | 0.493 | 0.635 | 0.623 | 0.561 | 0.766 | 1.18 | 0.434 | 0.613 |
| FKDGQYWIRGW [ACSF3_Y466_R471W] | 0.998 | 0.624 | 0.609 | 0.534 | 0.551 | 0.636 | 0.345 | 0.372 | 0.624 | 0.927 | 0.799 | 0.513 | 1.13 | 0.733 | 0.47 | 0.87 |
| MSSLPYMKVIF [SLC4A11_Y853_M856V] | 0.822 | 0.541 | 0.764 | 0.516 | 0.592 | 0.461 | 0.507 | 1.01 | 0.482 | 1.02 | 0.622 | 0.507 | 0.84 | 2.98 | 1 | 1.38 |
| LRNIDYFRLDG [ATRX_Y2083_YF] | 3.71 | 3.05 | 21.5 | 3.74 | 10.8 | 5.39 | 3.41 | 1.7 | 2.95 | 26.8 | 1.63 | 2.77 | 4.09 | 22.6 | 0.595 | 0.761 |
| GGGGSYNVFGN [HNRNPA1_Y312_D314V] | 0.65 | 0.523 | 0.467 | 0.488 | 0.515 | 0.652 | 0.457 | 0.419 | 0.404 | 0.723 | 0.424 | 0.441 | 0.742 | 0.747 | 0.52 | 0.833 |

| Sequence | phosphorylation enrichment (AncSZ) | phosphorylation enrichment (EPHB2) | phosphorylation enrichment (FGFR1) | phosphorylation enrichment (c-Src) | phosphorylation enrichment (FGFR3) | phosphorylation enrichment (c-Abl (mouse)) | phosphorylation enrichment (MERTK) | phosphorylation enrichment (Fer (mouse)) | phosphorylation enrichment (EPHB1) | phosphorylation enrichment (Jak2) | phosphorylation enrichment (Hck) | phosphorylation enrichment (Fyn) | phosphorylation enrichment (Fes) | SH2 binding enrichment (SHP2-C SH2) | SH2 binding enrichment (c-Src SH2) | SH2 binding enrichment (Grb2 SH2) |
| --- | --- | --- | --- | --- | --- | --- | --- | --- | --- | --- | --- | --- | --- | --- | --- | --- |
| SILAVYSKDNF [PANK2_Y400_YF] | 0.868 | 0.76 | 0.662 | 1.94 | 0.709 | 0.522 | 0.995 | 0.438 | 0.58 | 0.867 | 0.872 | 0.862 | 1.69 | 0.975 | 0.716 | 0.802 |
| YRQNVYIPGSN [PCDHGA1_Y895] | 0.564 | 0.429 | 0.427 | 0.454 | 0.519 | 0.531 | 0.424 | 0.405 | 0.421 | 0.576 | 0.435 | 0.435 | 0.626 | 0.661 | 0.43 | 0.829 |
| PLQKTYNYNVL [SLC4A1_Y553] | 0.872 | 0.689 | 0.711 | 0.565 | 0.691 | 0.881 | 0.43 | 0.628 | 0.66 | 0.986 | 0.596 | 0.495 | 1.08 | 0.766 | 1.12 | 0.708 |
| YSNVLYRPRGP [TMIGD2_Y197_A202P] | 0.796 | 0.576 | 0.685 | 0.421 | 0.525 | 0.461 | 0.856 | 1.83 | 0.492 | 0.501 | 0.69 | 0.501 | 0.656 | 4.56 | 0.682 | 0.717 |
| PMDTYYDSTRG [DYNC2H1_Y2231] | 1.5 | 1.37 | 3.15 | 1.91 | 2.3 | 1.15 | 0.827 | 0.799 | 1.28 | 1.14 | 1.86 | 1.43 | 1.31 | 0.44 | 0.742 | 0.666 |
| NLTLKYPIEHG [ACTA1_Y71_I66N] | 0.767 | 0.541 | 0.598 | 0.417 | 0.549 | 0.717 | 0.407 | 0.375 | 0.493 | 0.669 | 0.446 | 0.47 | 0.93 | 0.718 | 0.507 | 0.804 |
| FAAAGYGSLEA [EPHA10_Y959] | 0.86 | 0.485 | 0.507 | 1.14 | 0.535 | 0.747 | 0.469 | 0.487 | 0.403 | 0.675 | 0.436 | 0.443 | 0.844 | 0.701 | 0.515 | 0.926 |
| DSDTDYGSGYP [RNASEH2A_Y206_L202S] | 1.36 | 0.573 | 0.647 | 0.689 | 0.899 | 1.01 | 0.575 | 0.646 | 0.708 | 1.43 | 0.699 | 0.677 | 1.55 | 0.405 | 0.442 | 0.688 |
| LARDMCDKEFF [MET_Y1230_Y1230C_YF] | 1.79 | 0.816 | 0.492 | 0.715 | 1.06 | 1.42 | 0.697 | 0.738 | 0.61 | 1.34 | 0.653 | 0.513 | 2.12 | 0.676 | 0.475 | 0.778 |
| GSQERYFELVE [TSC2_Y407] | 1.13 | 0.571 | 0.947 | 0.509 | 0.826 | 0.813 | 0.489 | 0.541 | 0.577 | 1.17 | 0.466 | 0.462 | 1.27 | 0.499 | 2.07 | 0.689 |
| FIAVGYVDDTQ [HLA-A_Y51] | 0.822 | 0.499 | 0.505 | 0.49 | 0.553 | 0.668 | 0.415 | 0.429 | 0.453 | 0.782 | 0.509 | 0.406 | 0.949 | 0.967 | 0.625 | 1.05 |
| RGFDTYFGFLL [ARSB_Y165_YF] | 1.68 | 4.31 | 3.4 | 6.93 | 3.25 | 1.14 | 5.24 | 4.06 | 4.25 | 4.64 | 6.53 | 8.78 | 1.53 | 0.828 | 0.578 | 0.899 |
| NTTIHYNYMCN [TP53_Y234_C229N] | 1.08 | 0.692 | 0.767 | 0.496 | 0.803 | 0.707 | 0.574 | 0.566 | 0.747 | 0.817 | 0.579 | 0.55 | 1.06 | 0.848 | 2.42 | 0.931 |
| HRTLVYGGIFL [FBP1_Y259] | 1.19 | 0.84 | 0.704 | 3.83 | 1.01 | 1.06 | 0.532 | 1.01 | 0.677 | 1.07 | 3.69 | 5.36 | 1.38 | 0.493 | 0.358 | 0.747 |
| GYAGKYIAMVM [CYP19A1_Y441_C437Y] | 0.752 | 0.483 | 0.521 | 0.381 | 0.584 | 0.862 | 0.479 | 0.545 | 0.525 | 0.644 | 0.526 | 0.489 | 0.904 | 0.563 | 0.732 | 0.883 |
| TQNGVYSAANF [DDX5_Y535_YF] | 0.56 | 1.94 | 0.489 | 5.43 | 0.443 | 2 | 6.66 | 4.42 | 1.4 | 0.444 | 8.3 | 7.62 | 0.541 | 0.611 | 0.855 | 0.861 |
